Literature values in PMC3001128.

Experiments:
CD48 IgV = CD48 IgV (UniProt P18181)
CD58 IgV (Homo sapiens) = CD58 IgV (Homo sapiens) (UniProt P19256)
GITR (Homo sapiens) = GITR (Homo sapiens) (UniProt Q9Y5U5)
NTB-A (Homo sapiens) = NTB-A (Homo sapiens) (UniProt Q96DU3)
[1] = target: SLAM (CD150) (Homo sapiens) (UniProt Q13291)

UniProt P19256, sequence (P19256 30-121): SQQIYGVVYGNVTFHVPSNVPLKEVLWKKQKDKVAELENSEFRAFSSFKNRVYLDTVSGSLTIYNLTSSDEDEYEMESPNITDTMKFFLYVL
UniProt P18181, sequence (P18181 29-125): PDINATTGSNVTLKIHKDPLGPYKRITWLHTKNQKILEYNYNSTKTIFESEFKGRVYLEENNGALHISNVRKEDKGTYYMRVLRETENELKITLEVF
UniProt Q9Y5U5, sequence (Q9Y5U5 26-241): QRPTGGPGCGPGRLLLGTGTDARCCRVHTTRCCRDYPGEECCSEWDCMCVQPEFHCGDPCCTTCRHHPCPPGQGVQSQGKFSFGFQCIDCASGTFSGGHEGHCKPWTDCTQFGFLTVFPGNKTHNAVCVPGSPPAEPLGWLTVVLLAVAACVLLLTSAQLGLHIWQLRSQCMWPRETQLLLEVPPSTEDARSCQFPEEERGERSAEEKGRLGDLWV

With 2B4 IgV (from UniProt Q07763) as the substance, how does the Kd (CD48 IgV) read?
The Kd was 4 µM.

For CD2 IgV (from UniProt P06729), which Kd (CD58 IgV (Homo sapiens)) is on record?
The Kd was 10 µM.

Which Kd (GITR (Homo sapiens)) does the source give for GITRL (from UniProt Q9UNG2) here?
The Kd was 0.56 µM.

For NTB-A (from UniProt Q96DU3), which Kd (NTB-A (Homo sapiens)) is on record?
Its Kd is 2 µM.

For SLAM (CD150) (from UniProt Q13291), which Kd [1] is on record?
The Kd was 200 µM.
